Results as given in patent US20220089784A1 (University of California, published 2022).
Like-named read-outs stand apart in the source and are kept apart here.

T1: BoNT/F1 (proteolytic BoNT/F) (Clostridium botulinum, UniProt A7GBG3 1-1278)
T1 sequence: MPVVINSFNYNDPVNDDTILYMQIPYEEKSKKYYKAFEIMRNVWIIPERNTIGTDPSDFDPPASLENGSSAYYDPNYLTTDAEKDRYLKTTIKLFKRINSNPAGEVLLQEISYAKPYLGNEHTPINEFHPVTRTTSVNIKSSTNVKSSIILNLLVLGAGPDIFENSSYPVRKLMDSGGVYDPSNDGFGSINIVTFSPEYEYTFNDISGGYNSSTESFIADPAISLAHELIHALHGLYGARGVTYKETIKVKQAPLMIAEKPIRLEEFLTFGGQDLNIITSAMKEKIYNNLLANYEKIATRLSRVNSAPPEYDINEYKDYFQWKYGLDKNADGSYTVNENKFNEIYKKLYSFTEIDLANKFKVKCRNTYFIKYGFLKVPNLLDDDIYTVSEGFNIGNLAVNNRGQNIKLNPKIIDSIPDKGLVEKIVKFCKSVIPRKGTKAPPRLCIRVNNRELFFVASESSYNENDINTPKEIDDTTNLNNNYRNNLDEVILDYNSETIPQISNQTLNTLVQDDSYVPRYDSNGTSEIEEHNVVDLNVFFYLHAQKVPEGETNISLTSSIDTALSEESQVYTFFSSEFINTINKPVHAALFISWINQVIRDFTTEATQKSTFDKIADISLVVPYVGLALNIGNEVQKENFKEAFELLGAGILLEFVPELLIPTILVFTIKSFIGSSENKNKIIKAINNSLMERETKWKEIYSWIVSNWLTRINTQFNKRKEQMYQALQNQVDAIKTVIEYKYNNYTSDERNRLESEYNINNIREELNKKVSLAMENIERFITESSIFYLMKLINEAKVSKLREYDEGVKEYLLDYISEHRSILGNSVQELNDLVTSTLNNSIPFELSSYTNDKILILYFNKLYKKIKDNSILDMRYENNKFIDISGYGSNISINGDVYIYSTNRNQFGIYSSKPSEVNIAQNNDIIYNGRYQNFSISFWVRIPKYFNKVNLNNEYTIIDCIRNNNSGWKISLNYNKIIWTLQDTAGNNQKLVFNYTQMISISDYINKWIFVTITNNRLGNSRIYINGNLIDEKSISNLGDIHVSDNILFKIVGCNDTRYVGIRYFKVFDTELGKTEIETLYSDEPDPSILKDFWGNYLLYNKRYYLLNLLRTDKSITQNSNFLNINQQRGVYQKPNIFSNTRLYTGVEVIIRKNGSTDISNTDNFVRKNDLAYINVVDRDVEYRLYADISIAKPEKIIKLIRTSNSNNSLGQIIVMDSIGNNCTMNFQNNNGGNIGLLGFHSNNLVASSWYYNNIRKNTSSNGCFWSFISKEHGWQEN

T2: BoNT/C1 holotoxin (Clostridium botulinum, UniProt P18640 2-1291)
T2 sequence: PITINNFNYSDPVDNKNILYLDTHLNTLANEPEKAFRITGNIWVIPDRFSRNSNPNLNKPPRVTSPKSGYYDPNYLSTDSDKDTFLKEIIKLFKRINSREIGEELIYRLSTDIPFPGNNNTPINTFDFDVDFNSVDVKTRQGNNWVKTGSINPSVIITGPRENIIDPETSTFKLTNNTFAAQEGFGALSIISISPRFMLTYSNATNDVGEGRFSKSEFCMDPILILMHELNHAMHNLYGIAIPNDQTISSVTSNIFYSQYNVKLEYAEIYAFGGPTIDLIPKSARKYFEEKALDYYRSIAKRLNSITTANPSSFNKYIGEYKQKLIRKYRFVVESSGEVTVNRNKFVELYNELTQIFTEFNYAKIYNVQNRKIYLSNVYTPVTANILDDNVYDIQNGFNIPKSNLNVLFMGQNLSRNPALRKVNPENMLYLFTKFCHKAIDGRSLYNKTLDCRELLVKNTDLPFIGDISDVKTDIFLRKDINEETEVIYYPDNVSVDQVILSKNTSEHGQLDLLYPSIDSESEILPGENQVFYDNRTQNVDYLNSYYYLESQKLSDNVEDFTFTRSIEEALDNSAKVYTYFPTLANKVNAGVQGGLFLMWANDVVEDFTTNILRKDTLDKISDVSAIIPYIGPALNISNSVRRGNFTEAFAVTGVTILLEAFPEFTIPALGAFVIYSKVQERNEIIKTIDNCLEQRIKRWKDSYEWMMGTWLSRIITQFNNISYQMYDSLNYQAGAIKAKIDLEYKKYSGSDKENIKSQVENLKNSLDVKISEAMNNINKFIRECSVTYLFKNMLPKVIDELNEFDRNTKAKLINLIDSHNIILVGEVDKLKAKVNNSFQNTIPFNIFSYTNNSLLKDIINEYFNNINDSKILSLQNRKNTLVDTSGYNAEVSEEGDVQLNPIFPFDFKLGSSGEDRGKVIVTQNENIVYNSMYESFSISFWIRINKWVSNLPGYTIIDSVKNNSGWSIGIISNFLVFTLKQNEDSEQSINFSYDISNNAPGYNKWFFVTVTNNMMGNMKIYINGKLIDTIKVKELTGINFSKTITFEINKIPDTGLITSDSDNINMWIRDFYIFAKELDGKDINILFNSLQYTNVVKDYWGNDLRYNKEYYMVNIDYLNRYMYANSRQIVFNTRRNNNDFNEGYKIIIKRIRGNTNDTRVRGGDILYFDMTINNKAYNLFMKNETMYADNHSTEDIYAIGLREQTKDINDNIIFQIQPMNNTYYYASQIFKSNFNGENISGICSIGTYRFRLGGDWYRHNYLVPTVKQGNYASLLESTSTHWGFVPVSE

T3: BoNT/D (Clostridium botulinum, UniProt P19321 2-1276)
T3 sequence: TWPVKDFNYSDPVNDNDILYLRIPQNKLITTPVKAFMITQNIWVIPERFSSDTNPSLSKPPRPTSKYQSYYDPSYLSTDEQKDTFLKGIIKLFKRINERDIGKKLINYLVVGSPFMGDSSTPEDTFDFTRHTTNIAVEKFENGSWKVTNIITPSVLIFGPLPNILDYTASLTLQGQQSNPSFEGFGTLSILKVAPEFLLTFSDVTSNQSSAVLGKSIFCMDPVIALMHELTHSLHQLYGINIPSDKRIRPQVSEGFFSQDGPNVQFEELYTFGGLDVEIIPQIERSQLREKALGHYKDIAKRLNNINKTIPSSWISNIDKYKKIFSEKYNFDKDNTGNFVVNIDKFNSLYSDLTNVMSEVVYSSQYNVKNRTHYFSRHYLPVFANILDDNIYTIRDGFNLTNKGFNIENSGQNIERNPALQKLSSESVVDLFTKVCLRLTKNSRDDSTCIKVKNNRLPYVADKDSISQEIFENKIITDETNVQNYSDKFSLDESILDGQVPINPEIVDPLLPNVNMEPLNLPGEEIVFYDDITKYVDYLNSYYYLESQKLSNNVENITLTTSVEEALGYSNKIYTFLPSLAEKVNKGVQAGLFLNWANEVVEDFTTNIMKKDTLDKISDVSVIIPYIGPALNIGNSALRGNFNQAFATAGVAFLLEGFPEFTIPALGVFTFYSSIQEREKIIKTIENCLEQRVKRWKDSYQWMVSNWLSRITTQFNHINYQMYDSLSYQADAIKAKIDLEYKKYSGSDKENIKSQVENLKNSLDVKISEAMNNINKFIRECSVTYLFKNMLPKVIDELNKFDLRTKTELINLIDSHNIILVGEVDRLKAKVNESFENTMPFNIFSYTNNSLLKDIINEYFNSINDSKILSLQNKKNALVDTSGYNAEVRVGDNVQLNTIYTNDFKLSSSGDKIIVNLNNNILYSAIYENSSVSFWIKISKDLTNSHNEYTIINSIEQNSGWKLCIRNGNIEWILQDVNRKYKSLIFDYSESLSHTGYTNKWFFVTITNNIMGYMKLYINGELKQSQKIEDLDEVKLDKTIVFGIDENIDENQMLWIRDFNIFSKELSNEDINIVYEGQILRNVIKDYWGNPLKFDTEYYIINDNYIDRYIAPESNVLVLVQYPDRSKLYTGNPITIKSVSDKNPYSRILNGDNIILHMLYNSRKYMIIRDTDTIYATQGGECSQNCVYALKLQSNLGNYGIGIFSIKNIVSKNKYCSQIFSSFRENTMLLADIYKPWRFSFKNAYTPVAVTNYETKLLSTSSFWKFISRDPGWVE

B1: 29B8 scFv (scFv, V domains shown)
VH: EVQLQQSGAELVKPGASVKLSCTASGFNIKDYYMHWVKQRTEQGLEWIGRIDPEDGETKYAPKFQGKATITADTSSNTAYLQLSSLTSEDTAVYYCVSLLRSRTGYFDYWGQGTTLTVSS
VL: ENVLTQSPAIMSASPGEKVTMTCSASSSVSYMHWYQQKSGTSPKRWIYDTSNLAPGVPARFSGSGSGTSYSLTISSMEAEDAASYFCHQWSSYPYTFGGGTKLEIK
B2: 29A2 scFv (scFv, V domains shown)
VH: EVQLLETGGDLVKPGGSLKLSCAASGFTFSYYGMSWVRQTPDKRLEWVATISSGGSYTYYPDSVKGRFTISRDNAKNTLYLQMSSLKSEDTAMYYCARRRVYYGSSYEDYWGQGTTLTVSS
VL: EIVLTQSPALMSASPGEKVTMTCSASSSVSYMYWYQQKPRSSPKPWIYLTSNLASGVPARFSGSGSGTSYSLTISSMEAEDAATYYCQQWSSNPYTFGGGTKLELK
B3: 6A2M IgG (antibody, V domains shown)
VH: EVQLQQSGAELVRPGTSVKLSCKSSGYTFTSDWMHWVIQRPGQGLEWIGVIDPSDSYTNYNQKFKGKATLTVDTSSSTAYMHLSSLTSEDSAVYYCARREGHYYGKAMDYWGQGTSVTVSS
VL: DIVMSQSPASLAVSLGQRATISCRASESVDYDGDSYMNWYQQKPGQPPKLLIYAASNLESGIPARFSGSGSGTDFTLNIHPVEEEDAATYYCLQSNEAPWTFGGGTKLEIK
notes: IgG converted from scFv
B4: 8DC3 scFv (scFv, V domains shown)
VH: QVQLVQSGGGLVKPGGSLRLSCAASGFTFSSHSMNWVRQAPGKGLEWVSSISSSSSYIYYADSVKGRFTISRDNSKNSLYLQLNSLRAEDTAVYYCARGDHDFRSGYYGMDVWGQGTMVTVSS
VL: AELTQDPAVSVALGQTVRITCQGDSLRNYYASWYQQKPGQAPVLVIYGKNIRPSGIPDRFSGSSSGNTASLTITGAQAEDEADYYCNSRDSNGNHYVFGTGTKVTVL
notes: human
B5: 8DC2 scFv (scFv, V domains shown)
VH: QVQLVQSGAEVKKPGSSVKVSCKTSGGTFRNFAISWVRQAPGQGLEWMGGIIPMFGKGHYAQNFQGRVTITADDSTTTAYMELSSLRYEDTAVYYCARGTRNGSLRDAFDIWGQGTTVTVSS
VL: ASVLTQDPSASGSPGQSVTISCTGTSSDVGGYNYVSWYQQHPGKAPKLMIYDVSNRPSEVPDRFSGSKSGNTASLTVSGLQAEDEADYYCSSYAGSNKRVFGGGTKLTVL
notes: human
B6: 28H4 scFv (scFv, V domains shown)
VH: EVQLQQSGAELAKPGASVKLSCKASGYTFTSYWMHWVKQGPGQGLEWIGAIYPGNSDTGYNQKFKGKAKLTAVTSASTAYMELSSLTNEDSAVYYCTRHGYYIYALDYWGQGTSVTVSS
VL: DIVLTQSPAIMSASPGEKVTMTCSASSSVSYMYWYQQKPGSSPKPWIYRTSNLASGVPVRFSGSGSGTSYSLTISSMEAEDAATYYCQQYHNFPPTFGGGTKLEIK
B7: 30C8 scFv (scFv, V domains shown)
VH: EVQLKQSGTELVKPRSSVKMSCKASGYTFTDYWIGWTKQRPGHGLEWIGHIYPGGGYTNYNEKFKGKATLTADISSSAAYMQFSSPTSEDSAIYYCARIIMVESGDWYFDVWGTGTTLTVSS
VL: DIVLTQSPAIMSASLGEEITLTCSASSSVSYMHWYQQKSGTSPKLLIYSTSNLASGVPSRFSGSGSGTSYSLTISNMEAEDAATYYCQQWSSNPYTFGGGTKLELK
B8: 28C11 scFv (scFv, V domains shown)
VH: EVQLQESGGDLVKPGGSLKLSCAASGFTFSYYGMSWVRQTPDKRLEWVATISSGGTYTYYPDSVKGRFTISRDNAKNTLYLQMSSLSSEDTAMYYCARRRSYDSVYWYFDVWGAGTSVTVSS
VL: DIVLTQSPAITAASLGQKVTITCSASSSGSYIHWYQQKSGTSPKLLIYRTSNLASGVPSRFSGSGSGTFYSLTISSVEAEDAADYFCHQWSSYPTFGGGTKLEIK

Key:
[1] = target: T1, BoNT/F1 (proteolytic BoNT/F); assay: yeast scFv FACS
[2] = target: T1, BoNT/F1 (proteolytic BoNT/F); assay: yeast scFv FACS; remark: listed apart in the source
[3] = target: BoNT/A light chain (recombinant) (Clostridium botulinum, UniProt P0DPI0 1-448); assay: KinExA, IgG
Sequence of BoNT/A light chain (recombinant) (P0DPI0 1-448 limits assumed): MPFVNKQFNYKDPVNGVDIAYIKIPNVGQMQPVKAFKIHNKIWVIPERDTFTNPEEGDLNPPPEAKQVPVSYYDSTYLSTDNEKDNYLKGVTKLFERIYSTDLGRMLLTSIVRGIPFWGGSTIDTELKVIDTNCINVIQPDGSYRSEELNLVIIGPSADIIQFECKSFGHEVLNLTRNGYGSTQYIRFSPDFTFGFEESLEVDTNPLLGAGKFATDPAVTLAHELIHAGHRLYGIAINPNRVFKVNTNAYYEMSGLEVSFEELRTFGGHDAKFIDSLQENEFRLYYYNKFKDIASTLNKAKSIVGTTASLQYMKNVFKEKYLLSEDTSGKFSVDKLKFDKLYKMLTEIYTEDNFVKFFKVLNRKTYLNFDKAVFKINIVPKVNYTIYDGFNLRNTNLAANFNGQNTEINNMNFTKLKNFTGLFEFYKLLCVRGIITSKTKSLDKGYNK

[4] = target: T2, BoNT/C1 holotoxin; assay: yeast scFv FACS
[5] = target: T3, BoNT/D; assay: yeast scFv FACS

Binder	Kd [1]	Kd [2]	Kd [3]	binding result [4]	binding result [5]
B1	35800 pM	35800 pM			
B2	990 pM	990 pM			
B3			45000 pM		
B4				no binding (tested: ~1 µM)	binds
B5				binds	no binding (tested: ~1 µM)
B6	20000 pM	20000 pM			
B7	200 pM	200 pM			
B8	120 pM	120 pM			
